Measurements reported in IntAct's records for PubMed 23523425.

B1: Polycomb complex protein BMI-1 (Homo sapiens), P35226 (parent)
chain: MHRTTRIKITELNPHLMCVLCGGYFIDATTIIECLHSFCKTCIVRYLETSKYCPICDVQVHKTRPLLNIRSDKTLQDIVYKLVPGLFKNEMKRRRDFYAAHPSADAANGSNEDRGEVADEDKRIITDDEIISLSIEFFDQNRLDRKVNKDKEKSKEEVNDKRYLRCPAAMTVMHLRKFLRSKMDIPNTFQIDVMYEEEPLKDYYTLMDIAYIYTWRRNGPLPLKYRVRPTCKRMKISHQRDGLTNAGELESDSGSDKANSPAGGIPSTSSCLPSPSTPVQSPHPQFPHISSTMNGTSNSPSGNHQSSFANRPRKSSVNGSSATSSG
partner: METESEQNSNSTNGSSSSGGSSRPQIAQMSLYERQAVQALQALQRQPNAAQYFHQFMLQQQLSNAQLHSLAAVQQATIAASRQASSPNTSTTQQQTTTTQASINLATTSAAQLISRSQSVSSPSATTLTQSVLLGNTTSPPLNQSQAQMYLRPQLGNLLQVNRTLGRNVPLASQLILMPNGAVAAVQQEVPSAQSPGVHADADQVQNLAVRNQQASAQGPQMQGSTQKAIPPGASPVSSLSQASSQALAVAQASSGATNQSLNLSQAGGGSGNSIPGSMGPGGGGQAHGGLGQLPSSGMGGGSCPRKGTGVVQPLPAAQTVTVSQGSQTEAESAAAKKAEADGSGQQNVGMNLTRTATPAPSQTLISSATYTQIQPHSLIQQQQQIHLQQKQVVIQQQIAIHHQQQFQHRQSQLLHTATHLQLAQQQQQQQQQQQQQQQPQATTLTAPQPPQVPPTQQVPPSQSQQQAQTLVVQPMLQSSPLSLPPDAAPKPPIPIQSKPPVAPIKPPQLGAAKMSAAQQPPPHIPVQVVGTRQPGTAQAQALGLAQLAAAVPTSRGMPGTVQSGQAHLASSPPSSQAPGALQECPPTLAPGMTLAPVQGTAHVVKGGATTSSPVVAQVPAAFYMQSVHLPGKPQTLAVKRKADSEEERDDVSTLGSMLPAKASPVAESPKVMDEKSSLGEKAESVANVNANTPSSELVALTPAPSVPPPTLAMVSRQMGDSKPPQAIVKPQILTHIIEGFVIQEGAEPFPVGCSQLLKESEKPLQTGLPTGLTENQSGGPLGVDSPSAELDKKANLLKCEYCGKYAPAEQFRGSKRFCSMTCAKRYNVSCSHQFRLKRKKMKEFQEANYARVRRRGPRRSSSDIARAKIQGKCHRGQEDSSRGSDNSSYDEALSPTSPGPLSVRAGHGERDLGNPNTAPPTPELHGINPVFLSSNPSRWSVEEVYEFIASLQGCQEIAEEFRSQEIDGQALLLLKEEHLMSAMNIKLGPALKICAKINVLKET
B2: Polycomb group RING finger protein 2 (Homo sapiens), P35227 (parent)
chain: MHRTTRIKITELNPHLMCALCGGYFIDATTIVECLHSFCKTCIVRYLETNKYCPMCDVQVHKTRPLLSIRSDKTLQDIVYKLVPGLFKDEMKRRRDFYAAYPLTEVPNGSNEDRGEVLEQEKGALSDDEIVSLSIEFYEGARDRDEKKGPLENGDGDKEKTGVRFLRCPAAMTVMHLAKFLRNKMDVPSKYKVEVLYEDEPLKEYYTLMDIAYIYPWRRNGPLPLKYRVQPACKRLTLATVPTPSEGTNTSGASECESVSDKAPSPATLPATSSSLPSPATPSHGSPSSHGPPATHPTSPTPPSTASGATTAANGGSLNCLQTPSSTSRGRKMTVNGAPVPPLT
partner: B1 partner

Variants of: B1
Details: with phc1_human PHC1, P78364

effect of a mutation on the interaction	Variant
decreasing interaction strength	MHRTTRIKITELNPHLMCVLCGGYFIDATTIIECLHSFCKTCIVRYLETSKYCPICDVQVHKTRPLLNIRSDKTLQDIVYKLVPGLFKNEMKRRRDFYAAHPSADAANGSNEDRGEVADEDKRIITDDEIISLSIEFFDQNRLDRKVNKDKEKSKEEVNDKRYLACPAAMTVMHLRKFLRSKMDIPNTFQIDVMYEEEPLKDYYTLMDIAYIYTWRRNGPLPLKYRVRPTCKRMKISHQRDGLTNAGELESDSGSDKANSPAGGIPSTSSCLPSPSTPVQSPHPQFPHISSTMNGTSNSPSGNHQSSFANRPRKSSVNGSSATSSG [R165A]
decreasing interaction strength	MHRTTRIKITELNPHLMCVLCGGYFIDATTIIECLHSFCKTCIVRYLETSKYCPICDVQVHKTRPLLNIRSDKTLQDIVYKLVPGLFKNEMKRRRDFYAAHPSADAANGSNEDRGEVADEDKRIITDDEIISLSIEFFDQNRLDRKVNKDKEKSKEEVNDKRALRCPAAMTVMHLRKFLRSKMDIPNTFQIDVMYEEEPLKDYYTLMDIAYIYTWRRNGPLPLKYRVRPTCKRMKISHQRDGLTNAGELESDSGSDKANSPAGGIPSTSSCLPSPSTPVQSPHPQFPHISSTMNGTSNSPSGNHQSSFANRPRKSSVNGSSATSSG [Y163A]
decreasing interaction strength	MHRTTRIKITELNPHLMCVLCGGYFIDATTIIECLHSFCKTCIVRYLETSKYCPICDVQVHKTRPLLNIRSDKTLQDIVYKLVPGLFKNEMKRRRDFYAAHPSADAANGSNEDRGEVADEDKRIITDDEIISLSIEFFDQNRLDRKVNKDKEKSKEEVNDKRYLRCPAAMTVMHLRKDLRSKMDIPNTFQIDVMYEEEPLKDYYTLMDIAYIYTWRRNGPLPLKYRVRPTCKRMKISHQRDGLTNAGELESDSGSDKANSPAGGIPSTSSCLPSPSTPVQSPHPQFPHISSTMNGTSNSPSGNHQSSFANRPRKSSVNGSSATSSG [F178D]

Variants of: B2
Details: with phc1_human PHC1, P78364

effect of a mutation on the interaction	Variant
decreasing interaction strength	MHRTTRIKITELNPHLMCALCGGYFIDATTIVECLHSFCKTCIVRYLETNKYCPMCDVQVHKTRPLLSIRSDKTLQDIVYKLVPGLFKDEMKRRRDFYAAYPLTEVPNGSNEDRGEVLEQEKGALSDDEIVSLSIEFYEGARDRDEKKGPLENGDGDKEKTGVRALRCPAAMTVMHLAKFLRNKMDVPSKYKVEVLYEDEPLKEYYTLMDIAYIYPWRRNGPLPLKYRVQPACKRLTLATVPTPSEGTNTSGASECESVSDKAPSPATLPATSSSLPSPATPSHGSPSSHGPPATHPTSPTPPSTASGATTAANGGSLNCLQTPSSTSRGRKMTVNGAPVPPLT [F165A]
decreasing interaction strength	MHRTTRIKITELNPHLMCALCGGYFIDATTIVECLHSFCKTCIVRYLETNKYCPMCDVQVHKTRPLLSIRSDKTLQDIVYKLVPGLFKDEMKRRRDFYAAYPLTEVPNGSNEDRGEVLEQEKGALSDDEIVSLSIEFYEGARDRDEKKGPLENGDGDKEKTGVRFLRCPAAMTVMHLAKDLRNKMDVPSKYKVEVLYEDEPLKEYYTLMDIAYIYPWRRNGPLPLKYRVQPACKRLTLATVPTPSEGTNTSGASECESVSDKAPSPATLPATSSSLPSPATPSHGSPSSHGPPATHPTSPTPPSTASGATTAANGGSLNCLQTPSSTSRGRKMTVNGAPVPPLT [F180D]
decreasing interaction strength	MHRTTRIKITELNPHLMCALCGGYFIDATTIVECLHSFCKTCIVRYLETNKYCPMCDVQVHKTRPLLSIRSDKTLQDIVYKLVPGLFKDEMKRRRDFYAAYPLTEVPNGSNEDRGEVLEQEKGALSDDEIVSLSIEFYEGARDRDEKKGPLENGDGDKEKTGVAFLRCPAAMTVMHLAKFLRNKMDVPSKYKVEVLYEDEPLKEYYTLMDIAYIYPWRRNGPLPLKYRVQPACKRLTLATVPTPSEGTNTSGASECESVSDKAPSPATLPATSSSLPSPATPSHGSPSSHGPPATHPTSPTPPSTASGATTAANGGSLNCLQTPSSTSRGRKMTVNGAPVPPLT [R164A]
